Measured values as given in patent US20230265179A1 (TWIST BIOSCIENCE, published 2023).

T1: CD40L over-expressed on Expi293 cells (UniProt P29965 1-261, limits assumed)
T1 construct: whole, on cells; also called cytokine over-expressing Expi293 cells
T1 sequence (looked up): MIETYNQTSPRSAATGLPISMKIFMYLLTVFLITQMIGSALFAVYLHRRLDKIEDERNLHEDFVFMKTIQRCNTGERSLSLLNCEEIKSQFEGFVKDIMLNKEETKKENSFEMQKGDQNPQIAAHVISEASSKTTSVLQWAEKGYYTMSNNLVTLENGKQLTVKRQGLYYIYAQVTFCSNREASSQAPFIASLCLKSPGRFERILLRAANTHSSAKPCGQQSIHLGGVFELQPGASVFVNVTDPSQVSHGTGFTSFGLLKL

T2: CD40L (UniProt P29965 113-261, limits assumed)
T2 construct: SPR analyte
T2 sequence (looked up): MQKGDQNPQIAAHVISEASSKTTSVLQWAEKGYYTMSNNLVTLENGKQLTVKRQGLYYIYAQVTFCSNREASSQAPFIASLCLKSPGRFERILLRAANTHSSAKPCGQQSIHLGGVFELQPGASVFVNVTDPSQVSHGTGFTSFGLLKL


What was measured:
[1] = molecular target: T1, CD40L over-expressed on Expi293 cells; assay: flow cytometry, 100 nM antibody, CD40L-Expi293 vs parent Expi293 cells;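 also: ratio is the mean fluorescence intensity on CD40L-overexpressing Expi293 cells divided by the mean fluorescence intensity on parental Expi293 cells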
Method: All incubations and washes were in buffer containing PBS+1% BSA. MFI Ratio is defined by the mean fluorescence intensity (MFI) of the cytokine over-expressing Expi293 cell over the Expi293 parent cell. […] EC50 was calculated in GraphPad Prism.

CD40L = molecular target: T2, CD40L; assay: SPR (Carterra LSA), antibody amine-coupled, 1:1 model
Method: SPR experiments were performed on a Carterra LSA SPR biosensor equipped with a HC30M chip at 25° C. in HBS-TE. Antibodies were diluted to 10 μg/mL and amine-coupled to the sensor chip by EDC/NHS activation, followed by ethanolamine HCl quenching. Increasing concentrations of analyte were flowed over the sensor chip in HBS-TE with 0.5 mg/mL BSA with 5-minute association and 15-minute dissociation. Following each injection cycle the surface was regenerated with 2× 30-second injections of IgG elution buffer (Thermo). Data were analyzed in Carterra's Kinetics Tool software with 1:1 binding model.

Row | Binder | 100 nM FACS (MFI Ratio) [1] [ratio] | Kd (CD40L) [pM] | koff (CD40L) [s⁻¹] | kon (CD40L) [M⁻¹ s⁻¹]
1 | CD40L-2 (VHH) VHH: EVQLVESGGGLVQPGGSLRLSCAASGGRTFSRYDMGWFRQAPGKEREFVAAISMSGDDAAYADSVKGRFTISADNSKNTAYLQMNSLKPEDTAVYYCASDHYDTDTKSDVYNWGQGTLVTVSS | 99.1 | 3180 | 0.000725 | 228000
2 | CD40L-53 (VHH) VHH: EVQLVESGGGLVQPGGSLRLSCAASGGRTFSDYDMGWFRQAPGKEREFVAAIDASGGFTEYADSVKGRFTISADNSKNTAYLQMNSLKPEDTAVYYCASDHYDTDTKSDVYNWGQGTLVTVSS | 104 | 98.3 | 0.000167 | 1.7e+06
3 | CD40L-106 (VHH) VHH: EVQLVESGGGLVQPGGSLRLSCAASGLTFNDYAMGWFRQAPGKEREFVAGITNGGGRTSYADSVKGRFTISADNSKNTAYLQMNSLKPEDTAVYYCAADVGPTVKWGQGTLVTVSS | 2.7 |  |  | 
4 | CD40L-98 (VHH) VHH: EVQLVESGGGLVQPGGSLRLSCAASGITFKRYDMGWFRQAPGKEREVVAVIYTSDGSTYYADSVKGRFTISADNSKNTAYLQMNSLKPEDTAVYYCAADRDRYRDGMGPMTTTDFRWGQGTLVTVSS | 6.4 |  |  | 
5 | CD40L-1 (VHH) VHH: EVQLVESGGGLVQPGGSLRLSCAASGRTFSSIYAMGWFRQAPGKEREFIAVIYWRDGSTLYADSVKGRFTISADNSKNTAYLQMNSLKPEDTAVYYCAAEPYGSGSSLISEYDWGQGTLVTVSS | 119 | 986 | 9.43e-05 | 95600
6 | CD40L-23 (VHH) VHH: EVQLVESGGGLVQPGGSLRLSCAASGSIDRINAMGWFRQAPGKEREFVAVIYSSDGSTLYADSVKGRFTISADNSKNTAYLQMNSLKPEDTAVYYCAAEPYGSGSSLISEYDWGQGTLVTVSS | 44.4 | 3000 | 0.000555 | 185000
7 | CD40L-115 (VHH) VHH: EVQLVESGGGLVQPGGSLRLSCAASGRTFSRYEMGWFRQAPGKEREFVAAVTEDGSTYYADSVKGRFTISADNSKNTAYLQMNSLKPEDTAVYYCAIAHGSSTYNWGQGTLVTVSS | 16.8 |  |  | 
8 | CD40L-10 (VHH) VHH: EVQLVESGGGLVQPGGSLRLSCAASGRIFSTYFMGWFRQAPGKEREFVAAIYWSNGKTQYADSVKGRFTISADNSKNTAYLQMNSLKPEDTAVYYCAAWLNGGNRWGQGTLVTVSS | 93.6 | ≤ 326 | ≤ 1e-05 | 30700
9 | CD40L-74 (VHH) VHH: EVQLVESGGGLVQPGGSLRLSCAASGRTFSSYYMGWFRQAPGKERELVAVIYTSDGSTYYADSVKGRFTISADNSKNTAYLQMNSLKPEDTAVYYCAAWLNGGNRWGQGTLVTVSS | 8.7 |  |  | 
10 | CD40L-82 (VHH) VHH: EVQLVESGGGLVQPGGSLRLSCAASGRIFSTYFMGWFRQAPGKEREGVATIYTGNGYTLYADSVKGRFTISADNSKNTAYLQMNSLKPEDTAVYYCAAWLNGGNRWGQGTLVTVSS | 18.6 |  |  | 
11 | CD40L-73 (VHH) VHH: EVQLVESGGGLVQPGGSLRLSCAASGFTLGNYAMGWFRQAPGKEREFVASITSYGDTYYADSVKGRFTISADNSKNTAYLQMNSLKPEDTAVYYCARDGYTYGVDYWGQGTLVTVSS | 10.9 |  |  | 
12 | CD40L-84 (VHH) VHH: EVQLVESGGGLVQPGGSLRLSCAASGRISNINIMGWFRQAPGKEREFVAGISQSGGSTAYADSVKGRFTISADNSKNTAYLQMNSLKPEDTAVYYCSRDEKLGPYYFDYWGQGTLVTVSS | 12.7 |  |  | 
13 | CD40L-80 (VHH) VHH: EVQLVESGGGLVQPGGSLRLSCAASGFTFDDYDMGWFRQAPGKERELVASITSGGSTNYADSVKGRFTISADNSKNTAYLQMNSLKPEDTAVYYCAIPHGIDLYTFDWGQGTLVTVSS | 4.6 |  |  | 
14 | CD40L-60 (VHH) VHH: EVQLVESGGGLVQPGGSLRLSCAASGLNLSRLDMGWFRQAPGKEREFVAAVDNDDNTEYADSVKGRFTISADNSKNTAYLQMNSLKPEDTAVYYCASDHYDTDTKSDVYNWGQGTLVTVSS | 50.4 | 118 | 0.000108 | 915000
15 | CD40L-105 (VHH) VHH: EVQLVESGGGLVQPGGSLRLSCAASGITFSSRTMGWFRQAPGKEREFVAAIRSSGGLFYADSVKGRFTISADNSKNTAYLQMNSLKPEDTAVYYCAAQDRRHGDYYTFDYHWGQGTLVTVSS | 4.5 |  |  | 
16 | CD40L-114 (VHH) VHH: EVQLVESGGGLVQPGGSLRLSCAASGRTFSPYIMGWFRQAPGKEREFVAEIGWRDTTLYADSVKGRFTISADNSKNTAYLQMNSLKPEDTAVYYCAARRGGDYLPTDWGQGTLVTVSS | 7.3 |  |  | 
17 | CD40L-76 (VHH) VHH: EVQLVESGGGLVQPGGSLRLSCAASGRTFSTSAMGWFRQAPGKEREWVATIYSRSGGGTAYADSVKGRFTISADNSKNTAYLQMNSLKPEDTAVYYCAKEGYDWGDYVMDYWGQGTLVTVSS | 9.6 |  |  | 
18 | CD40L-122 (VHH) VHH: EVQLVESGGGLVQPGGSLRLSCAASGLLFSSYDMGWFRQAPGKEREFVAAISWSTGSGDDTYYADSVKGRFTISADNSKNTAYLQMNSLKPEDTAVYYCASDHYDTDTKSDVYNWGQGTLVTVSS | 14.2 |  |  | 
19 | CD40L-26 (VHH) VHH: EVQLVESGGGLVQPGGSLRLSCAASGLTFSRYEMGWFRQAPGKEREFVAAVTEDGSINYADSVKGRFTISADNSKNTAYLQMNSLKPEDTAVYYCAAEIGYYSGGTYFSSEAWGQGTLVTVSS | 123 | 491 | 0.000211 | 429000
20 | CD40L-111 (VHH) VHH: EVQLVESGGGLVQPGGSLRLSCAASGDTSEINDMGWFRQAPGKEREFVAAIYPSGRNAYYADSVKGRFTISADNSKNTAYLQMNSLKPEDTAVYYCAIPHGIAGRITWGQGTLVTVSS | 9.7 |  |  | 
21 | CD40L-91 (VHH) VHH: EVQLVESGGGLVQPGGSLRLSCAASGGTFSSFPMGWFRQAPGKEREFVAAISWSEDNTYYADSVKGRFTISADNSKNTAYLQMNSLKPEDTAVYYCASRLAFCGRDCYLPTDWGQGTLVTVSS | 4.3 |  |  | 
22 | CD40L-96 (VHH) VHH: EVQLVESGGGLVQPGGSLRLSCAASGGTFSAFPMGWFRQAPGKEREWVAAITSSGDSIYYADSVKGRFTISADNSKNTAYLQMNSLKPEDTAVYYCTSRLAFCGRDCYLPTTWGQGTLVTVSS | 3.7 |  |  | 
23 | CD40L-99 (VHH) VHH: EVQLVESGGGLVQPGGSLRLSCAASGFTPDDYAMGWFRQAPGKEREFVADIMPYGSTEYADSVKGRFTISADNSKNTAYLQMNSLKPEDTAVYYCARRDAGIDFYYMDVWGQGTLVTVSS | 3.1 |  |  | 
24 | CD40L-102 (VHH) VHH: EVQLVESGGGLVQPGGSLRLSCAASGLTFSRYEMGWFRQAPGKEREFVAAVTEDGSIYADSVKGRFTISADNSKNTAYLQMNSLKPEDTAVYYCAAEIGYYSGGTYFSSEAWGQGTLVTVSS | 1.8 |  |  | 
25 | CD40L-45 (VHH) VHH: EVQLVESGGGLVQPGGSLRLSCAASGLNLSRLDMGWFRQAPGKEREFVAASSWTGANTYYADSVKGRFTISADNSKNTAYLQMNSLKPEDTAVYYCASDHYDTDIKSDVYNWGQGTLVTVSS | 93.9 | 453 | 0.000106 | 234000
26 | CD40L-125 (VHH) VHH: EVQLVESGGGLVQPGGSLRLSCAASGFTFDYYTMGWFRQAPGKEREFVAVIYSSDGSTLYADSVKGRFTISADNSKNTAYLQMNSLKPEDTAVYYCAIDEGMDYDGNFYDWGQGTLVTVSS | 6.6 |  |  | 
